T1: B-Cell maturation antigen (BCMA) on BCMA-expressing multiple myeloma cell lines (human, UniProt Q02223 1-184)
T1 sequence (looked up): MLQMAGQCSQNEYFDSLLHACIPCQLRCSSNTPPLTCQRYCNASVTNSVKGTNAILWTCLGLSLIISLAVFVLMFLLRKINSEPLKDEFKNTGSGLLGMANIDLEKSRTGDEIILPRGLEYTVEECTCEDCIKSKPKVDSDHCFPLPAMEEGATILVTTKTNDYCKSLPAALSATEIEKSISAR


How the values were obtained:
[1] = target: B-Cell maturation antigen (BCMA) on BCMA-expressing multiple myeloma cell lines (human) (UniProt Q02223); assay: cell-based or functional assay
[2] = target: T1, B-Cell maturation antigen (BCMA) on …; assay: cell-based or functional assay
[3] = target: T1, B-Cell maturation antigen (BCMA) on …; assay: flow cytometry-binding assay on MM.1S Luc and NCI-H929 cells
[4] = target: T1, B-Cell maturation antigen (BCMA) on …; assay: cell-based or functional assay; remark: listed apart in the source

| Molecule | cytotoxic potential EC50, KMS-11 cells, 96 h [1] [nM] | cytotoxic potential EC50, MM.1S Luc cells, 96 h [1] [nM] | cytotoxicity EC50 [M], MM.1S Luc cells, 96 h [2] [M] | cytotoxicity EC50 [M], MM.1S cells, 96 h [2] [M] | cytotoxicity EC50 [M], NCI-H929 cells, 96 h [2] [M] | cytotoxicity EC50 [M], OPM-2 cells, 96 h [2] [M] | cytotoxicity EC50 [M], U266B1 cells, 96 h [2] [M] | binding result [3] | cytotoxic potential EC50, KMS-11 cells, 96 h [4] [nM] | cytotoxic potential EC50, MM.1S Luc cells, 96 h [4] [nM] |
| --- | --- | --- | --- | --- | --- | --- | --- | --- | --- | --- |
| monomethyl auristatin F derivative J22.9-ISY-MMAF (antibody) | 0.626 | 0.481 | – | – | – | – | – | – | – | – |
| J22.9-ISY-D265C-30.1699 (antibody, V domains shown, alpha-amanitin-linker HDP 30.1699 (cathepsin B cleavable linker, maleimide) on the engineered Cys 265) VH: EVQLVESGGGLVQPGGSLRLSCAASGFTFSRYWISWVRQAPGKGLVWVGEINPSSSTINYAPSLKDKFTISRDNAKNTLYLQMNSLRAEDTAVYYCASLYYDYGDAYDYWGQGTLVTVSS VL: EIVMTQSPATLSVSPGERATLSCKASQSVESNVAWYQQKPGQAPRALIYSASLRFSGIPARFSGSGSGTEFTLTISSLQSEDFAVYYCQQYNNYPLTFGAGTKLELKR | – | – | 6.5e-11 | 1.7e-10 | 7e-11 | 7.9e-09 | 7.3e-11 | – | – | – |
| Thiomab antibody J22.9-ISY-D265C (antibody, human IgG1, kappa, V domains shown, Unconjugated antibody; also called thiomab J22.9-ISY-D265C) VH: EVQLVESGGGLVQPGGSLRLSCAASGFTFSRYWISWVRQAPGKGLVWVGEINPSSSTINYAPSLKDKFTISRDNAKNTLYLQMNSLRAEDTAVYYCASLYYDYGDAYDYWGQGTLVTVSS VL: EIVMTQSPATLSVSPGERATLSCKASQSVESNVAWYQQKPGQAPRALIYSASLRFSGIPARFSGSGSGTEFTLTISSLQSEDFAVYYCQQYNNYPLTFGAGTKLELKR | – | – | – | – | – | – | – | binds | – | – |
| amanitin-conjugate J22.9-ISY-D265C-30.2115 (antibody, V domains shown, amatoxin-linker HDP 30.2115 (cathepsin B cleavable linker, maleimide) on the engineered Cys 265) VH: EVQLVESGGGLVQPGGSLRLSCAASGFTFSRYWISWVRQAPGKGLVWVGEINPSSSTINYAPSLKDKFTISRDNAKNTLYLQMNSLRAEDTAVYYCASLYYDYGDAYDYWGQGTLVTVSS VL: EIVMTQSPATLSVSPGERATLSCKASQSVESNVAWYQQKPGQAPRALIYSASLRFSGIPARFSGSGSGTEFTLTISSLQSEDFAVYYCQQYNNYPLTFGAGTKLELKR | – | – | 2.3e-10 | 2.9e-10 | 9.7e-11 | 1.4e-07 | 1.4e-10 | – | 1.72 | 0.557 |
